Data reported in publication PMC11178655, “Dosimetry and pharmacokinetics of [^177Lu]Lu-satoreotide tetraxetan in patients with progressive neuroendocrine tumours” (European Journal of Nuclear Medicine and Molecular Imaging, 2024).
Like-named read-outs stand apart in the source and are kept apart here. Where a SMILES comes first, the peptide text is derived from it. Bridges are numbered along the chain shown (N, C = ends). [ ]: non-standard residue; d: D form. The star is where a group is joined. DOTA = O=C(O)CN1CCN(CC(=O)O)CCN(CC(=O)*)CCN(CC(=O)O)CC1; dPhe(4-NHCONH2) = NC(=O)Nc1ccc(C[C@@H](N)C(=O)O)cc1; Dihydroorotyl(S) = O=C1C[C@@H](C(=O)*)NC(=O)N1; Phe(4-Cl) = N[C@@H](Cc1ccc(Cl)cc1)C(=O)O; Phe(4-NH2) = Nc1ccc(C[C@H](N)C(=O)O)cc1

Tests used:
Format in all cases: in vivo, human
[1] = tested on: patients with progressive, SSTR-positive NETs; experiment: Model-based organ dosimetry, OLINDA/EXM version 1.0 (part B, first cycle); conditions: OLINDA/EXM 1.0, part B, median
Protocol: Patient-specific dosimetry calculations were performed after each treatment cycle in both parts A and B, using the absorbed dose calculation features of the NUKDOS software for image-based dosimetry calculations. The NUKDOS software was chosen as it allowed for an integral approach to organ dosimetry (including image quantification, time-activity curve-fitting and dosimetry calculation). For the bone marrow, both image-based and blood-based calculations were performed in part A [28, 29]. In part B, only image-based bone marrow dosimetry was performed. Organ Level INternal Dose Assessment/EXponential Modelling (OLINDA/EXM) version 1.0 software, the most widely used version at the time of the study, was used to perform model-based dosimetry calculations, which were only performed after the first [^177Lu]Lu-satoreotide tetraxetan cycle for patients in part B. To generate organ-specific absorbed doses, TIACs were used as input data. Full details on OLINDA/EXM software settings and organ-specific TIAC calculation methods are provided in the Supplementary Information.
Patient-specific dosimetry calculations were performed according to European Association of Nuclear Medicine Dosimetry Guidance after each treatment cycle in both parts A and B, using the absorbed dose calculation features of the NUKDOS software (i.e., integration of the time-activity curves, calculation of the absorbed dose). Model-based dosimetry calculations were only performed after the first [^177Lu]Lu-satoreotide tetraxetan cycle and for patients in part B. To generate organ-specific absorbed doses, TIACs were used as input data in the Organ Level INternal Dose Assessment/EXponential Modelling (OLINDA/EXM) software version 1.0, which was granted Food and Drug Administration 510(k) clearance in June 2004. The following settings were applied: ^177Lu isotope, no bladder voiding model, adult male or female phantom. As the OLINDA/EXM software makes no distinction between the right and left kidneys, their TIACs were summed. In case biokinetic data were available for one kidney only, the kidney TIAC value was doubled. For the bone marrow, the patient-specific mass of the analysed vertebrae was used for upscaling image-based TIAC values according to the OLINDA/EXM phantom gender-specific masses (mBone marrow=1,120 g for males and 1,300 g for females):
The kidney, spleen, liver, and bone marrow TIACs were subtracted from the patient’s whole-body TIAC to obtain the TIAC of the remainder of the body.

[2] = tested on: patients with progressive, SSTR-positive NETs; experiment: Time-activity curves of whole body and organs (planar whole-body imaging, SPECT/CT); conditions: first treatment cycle, parts A and B; median
Protocol: In both parts A and B of the study, patients underwent planar whole-body imaging at 4 h and 1, 2, 3, and 6 days after each [^177Lu]Lu-satoreotide tetraxetan treatment cycle. Patients in part A also underwent single-photon emission computed tomography/computed tomography (SPECT/CT) at 24 h after each [^177Lu]Lu-satoreotide tetraxetan cycle. Those in part B underwent SPECT/CT, immediately before or after planar scintigraphy, at 4 h, and 1, 2, 3, and 6 days after each [^177Lu]Lu-satoreotide tetraxetan administration. Full details of the image acquisition methodology are provided in the Supplementary Information. Reconstruction parameters were set up to produce isotropic voxels of < 5 mm; voxels were continuous throughout the field of view. Anatomic coverage of the acquisition was determined according to the patients’ tumour locations on the planar whole-body scan acquisition with liver, both kidneys and spleen in the same bed position. […] VOIs for the same organs were drawn for all SPECT/CT images acquired in part B. All ROIs/VOIs were then used for activity quantification. […] Full details of the tumour delineation and activity quantification methodology are provided in the Supplementary Information.

[3] = Blood pharmacokinetics (total activity in whole blood, gamma counter); conditions: first treatment cycle
Protocol: (§1) To generate pharmacokinetic data, blood samples (2 mL) were taken at the stop of infusion (0 min) and 5, 30, and 60 min, 4 h, and 1, 2, 3, and 6 days after the end of each [^177Lu]Lu-satoreotide tetraxetan administration. Urine samples were collected over three intervals within 48 h (0–6 h, 6–24 h, and 24–48 h in part A; 0–4 h, 4–24 h, and 24–48 h in part B) following the first treatment cycle of [^177Lu]Lu-satoreotide tetraxetan. Total activity concentrations in whole blood and urine were determined locally, using a gamma counter calibrated for lutetium-177. In two selected study centres, additional blood samples (2 mL) were collected at 1 min, 4 h, and 1, 2, 3, and 6 days after each [^177Lu]Lu-satoreotide tetraxetan administration to evaluate potential radioactive metabolites in plasma.

[4] = Urinary excretion of radioactivity within 48 h (gamma counter); conditions: first treatment cycle; for dose excreted: human, urine, iv, total radioactivity, read-out: Cumulative urinary excretion within 48 h
Protocol: as §1

[5] = Radioactive metabolites in plasma; conditions: 1 min, 4 h, and 1, 2, 3, and 6 days after each administration, two study centres
Protocol: as §1

C[C@@H](O)[C@@H]1NC(=O)[C@H](CCCCN)NC(=O)[C@@H](Cc2ccc(NC(N)=O)cc2)NC(=O)[C@H](Cc2ccc(NC(=O)[C@@H]3CC(=O)NC(=O)N3)cc2)NC(=O)[C@H](NC(=O)[C@H](Cc2ccc(Cl)cc2)NC(=O)CN2CCN(CC(=O)O)CCN(CC(=O)O)CCN(CC(=O)O)CC2)CSSC[C@@H](C(=O)N[C@H](Cc2ccc(O)cc2)C(N)=O)NC1=O [[^177Lu]Lu-satoreotide tetraxetan, metal not drawn] ({DOTA}-[Phe(4-Cl)][dC][Phe(4-NH2)](Dihydroorotyl(S))[dPhe(4-NHCONH2)]KTC[dY]-NH2; disulfide 2-7 (inferred); C-terminus assumed)
Calculated absorbed dose for 3 cycles of 4.5 GBq each, Red marrow ([1]; N = 18): 1.47 Gy
Calculated absorbed dose for 3 cycles of 4.5 GBq each, Spleen ([1]; N = 18): 8.78 Gy
Calculated absorbed dose for 3 cycles of 4.5 GBq each, Adrenals ([1]; N = 24): 1.03 Gy
Calculated absorbed dose for 3 cycles of 4.5 GBq each, Brain ([1]; N = 24): 0.96 Gy
Calculated absorbed dose for 3 cycles of 4.5 GBq each, Breasts ([1]; N = 24): 0.95 Gy
Calculated absorbed dose for 3 cycles of 4.5 GBq each, Gallbladder wall ([1]; N = 24): 1.02 Gy
Calculated absorbed dose for 3 cycles of 4.5 GBq each, Heart wall ([1]; N = 24): 0.99 Gy
Calculated absorbed dose for 3 cycles of 4.5 GBq each, Kidneys ([1]; N = 24): 14.18 Gy
Calculated absorbed dose for 3 cycles of 4.5 GBq each, Lungs ([1]; N = 24): 0.98 Gy
Calculated absorbed dose for 3 cycles of 4.5 GBq each, Muscle ([1]; N = 24): 0.97 Gy
Calculated absorbed dose for 3 cycles of 4.5 GBq each, Osteogenic cells ([1]; N = 24): 3.96 Gy
Calculated absorbed dose for 3 cycles of 4.5 GBq each, Ovaries ([1]; N = 24): 1.00 Gy
Calculated absorbed dose for 3 cycles of 4.5 GBq each, Pancreas ([1]; N = 24): 1.05 Gy
Calculated absorbed dose for 3 cycles of 4.5 GBq each, Skin ([1]; N = 24): 0.93 Gy
Calculated absorbed dose for 3 cycles of 4.5 GBq each, Small intestine ([1]; N = 24): 1.00 Gy
Calculated absorbed dose for 3 cycles of 4.5 GBq each, Stomach wall ([1]; N = 24): 1.01 Gy
Calculated absorbed dose for 3 cycles of 4.5 GBq each, Thymus ([1]; N = 24): 0.98 Gy
Calculated absorbed dose for 3 cycles of 4.5 GBq each, Thyroid ([1]; N = 24): 0.96 Gy
Calculated absorbed dose for 3 cycles of 4.5 GBq each, Total body ([1]; N = 24): 1.08 Gy
Calculated absorbed dose for 3 cycles of 4.5 GBq each, Liver ([1]; N = 24, may be an underestimation): 1.07 Gy
Calculated absorbed dose for 3 cycles of 4.5 GBq each, Uterus ([1]; female patients N = 11): 1.13 Gy
Calculated absorbed dose for 3 cycles of 4.5 GBq each, Testes ([1]; male patients N = 13): 0.72 Gy
Calculated absorbed dose for 3 cycles of 4.5 GBq each, LLI wall ([1]; lower large intestine, N = 24): 1.00 Gy
Calculated absorbed dose for 3 cycles of 4.5 GBq each, ULI wall ([1]; upper large intestine, N = 24): 1.01 Gy
Calculated absorbed dose for 3 cycles of 4.5 GBq each, UB wall ([1]; urinary bladder, N = 24): 0.99 Gy
Whole body uptake at 6 days [2]: 11.5 % administered activity
Extrapolated area under the concentration-time curve (AUC0–infinity), mean [3]: 742.0 ± 303.0 MBq.h/L
Terminal blood half-life, mean ± SD ([3]; gamma counter): 110.0 ± 50.1 h
Terminal blood half-life, median ([3]; gamma counter): 127 h
Blood uptake at 1–5 minutes (peak) ([3]; median): 3.03 % administered activity/L
Cumulative urinary excretion within 48 h ([4]; patients treated with 4.5 GBq): 57–66%
Radioactivity excreted via urine within 48 hours ([4]; patients treated with 4.5 GBq, range of medians across groups): 2.6–3.0 GBq
Radioactivity excreted via urine within 48 hours ([4]; patients treated with 6 GBq, median): 3.4 GBq
dose excreted ([4]; patients treated with 4.5 GBq): 57 to 66%
dose excreted ([4]; patients treated with 6 GBq): ~57%
Radioactive metabolites in plasma samples [5]: No radioactive metabolites were observed
